Assay results: publication PMC10080687, “Tautomer-Specific Deacylation and Ω-Loop Flexibility Explain the Carbapenem-Hydrolyzing Broad-Spectrum Activity of the KPC-2 β-Lactamase” (Journal of the American Chemical Society, 2023)

Tests used:
Assay in all cases: purified protein
Conditions in all cases: acylates Ser70
[1] = test system: C[C@@H](O)[C@H]1C(=O)N2C(C(=O)O)=C(S[C@@H]3CN[C@H](C(=O)N(C)C)C3)[C@H](C)[C@H]12; format: biochemical, Klebsiella pneumoniae
[2] = test system: C[C@@H](O)[C@H]1C(=O)N2C(C(=O)O)=C(S[C@@H]3CN[C@H](C(=O)Nc4cccc(C(=O)O)c4)C3)[C@H](C)[C@H]12; format: biochemical, Klebsiella pneumoniae
[3] = test system: CC(=O)OCC1=C(C(=O)O)N2C(=O)[C@@H](NC(=O)Cc3cccs3)[C@H]2SC1
[4] = test system: C[C@@H](O)[C@H]1C(=O)N2C(C(=O)O)=C(SCCN=CN)C[C@H]12

With KPC-2 (Klebsiella pneumoniae) as the substance, how does the Km [1] read?
Its Km is 7.1 µM.

What about the kcat [1] of the same substance?
The kcat was 21 s⁻¹.

And the kcat/Km [1]?
Its kcat/Km is 3e+06 M⁻¹ s⁻¹.

And the Km [2]?
The Km was 8.6 µM.

And the kcat [2]?
Its kcat is 8 s⁻¹.

What about the kcat/Km [2] of the same substance?
The kcat/Km was 920000 M⁻¹ s⁻¹.

What about the Km [3] of the same substance?
The Km was 42 µM.

What about the kcat [3] of the same substance?
The kcat was 110 s⁻¹.

And the Km [4]?
The Km was 72 µM.

What about the kcat [4] of the same substance?
The kcat was 22 s⁻¹.

What about the kcat/Km [4] of the same substance?
The kcat/Km was 310000 M⁻¹ s⁻¹.
